Data on 38 sequences can be found in the supplement of paper PMC7877785.

The nature of this data set: self-splicing fitness, log relative to wild type (ln ratio); higher = more splicing; Tetrahymena group I intron in knt gene, E. coli kanamycin selection, DiMSum; sequences stand for … in CUCUCU…GGAGGGAAAAGUUAUCAGGCAUGCACCUGGUAGCUAGUCUUUAAACCAAUAGAUUGCAUCGGUUUAAAAGGCAAGACCGUCAAAUUGCGGGAAAGGGGUCAACAGCCGUUCAGUACCAAGUCUCAGGGGAAACUUUGAGAUGGCCUUGCAAAGGGUAUGGUAAUAAGCUGACGGACAUGGUCCUAACCACGCAGCCAAGUCCUAAGUCAACAGAUCUUCUGUUGAUAUGGAUGCAGUUCACAGACUAAAUGUCGGUCGGGGAAGAUGUAUUCUUCUCAUAAGAUAUAGUCGGACCUCUCCUUAAUGGGAGCUAGCGGAUGAAGUGAUGCAACACUGGAGCCGCUGGGAACUAAUUUGUAUGCGAAAGUAUAUUGAUUAGUUUUGGAGUACUCGUGGUCG
Put shortly: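 Fitness was computed with DiMSum as the error-weighted combination of replicate fold changes, kanamycin versus none, each normalised to wild type. The library randomised all eight intron nucleotides of the P1ex region, with the intron placed in the knt kanamycin-resistance gene on pET-22b(+) in E. coli BL21(DE3). Six replicate transformations were grown overnight at 37°C or 30°C on LB agar with or without 25 μg/mL kanamycin, plus 100 μg/mL carbenicillin, 50 μM IPTG and 0.2% rhamnose. Pooled colonies were amplicon-sequenced on an Illumina HiSeq 2500.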

± gives the uncertainty stated by the source.

For the sequence UUCGAGCAAUAUUACGGUGA, the “self-splicing fitness (ln)” value by setting is: (30 °C) -1.33 ± 0.1; (37 °C) -0.708 ± 0.11.

Turning to CCAUAGCAAUAUUACGGCUG, the “self-splicing fitness (ln)” value by setting is: (30 °C) -3.05 ± 0.15; (37 °C) -1.62 ± 0.14.

Turning to GUGUAGCAAUAUUACGGUCA, the “self-splicing fitness (ln)” value runs as follows: (30 °C) -1.36 ± 0.14; (37 °C) -2.06 ± 0.12.

Regarding GCAGAGCAAUAUUACGUCCA, the “self-splicing fitness (ln)” value (30 °C) was -2 ± 0.25 and the “self-splicing fitness (ln)” value (37 °C) was -2.98 ± 0.4.

Consider UUUCAGCAAUAUUACGAAAU, for which the “self-splicing fitness (ln)” value (37 °C) was -2.26 ± 0.4.

With CCUCAGCAAUAUUACGGACA, the “self-splicing fitness (ln)” value by setting is: (30 °C) -3.54 ± 0.19; (37 °C) -3.15 ± 0.26.

For UCUUAGCAAUAUUACGACAG, the “self-splicing fitness (ln)” value is -2.9 ± 0.24 (30 °C) and -1.56 ± 0.22 (37 °C).

Regarding ACAUAGCAAUAUUACGCUAU, the “self-splicing fitness (ln)” value is -2.9 ± 0.13 (30 °C) and -2.38 ± 0.2 (37 °C).

On to UUCAAGCAAUAUUACGUUUU, for which the “self-splicing fitness (ln)” value is -3.78 ± 0.17 (30 °C) and -2.65 ± 0.16 (37 °C).

As to AGCUAGCAAUAUUACGCUAU, the “self-splicing fitness (ln)” value (30 °C) was -2.89 ± 0.21 and the “self-splicing fitness (ln)” value (37 °C) is -1.42 ± 0.18.

For UACAAGCAAUAUUACGUUGA, the “self-splicing fitness (ln)” value runs as follows: (30 °C) -2.72 ± 0.17; (37 °C) -2.06 ± 0.15.

As for CAGUAGCAAUAUUACGGGCU, the “self-splicing fitness (ln)” value by setting is: (30 °C) -3.56 ± 0.26; (37 °C) -1.21 ± 0.15.

On to UUCCAGCAAUAUUACGAGGA, for which the “self-splicing fitness (ln)” value runs as follows: (30 °C) -1.83 ± 0.19; (37 °C) -0.64 ± 0.22.

For AAAUAGCAAUAUUACGUUAC, the “self-splicing fitness (ln)” value is, setting by setting: (30 °C) -3.44 ± 0.22; (37 °C) -2.77 ± 0.27.

As for GUACAGCAAUAUUACGGACC, the “self-splicing fitness (ln)” value by setting is: (30 °C) -2.76 ± 0.13; (37 °C) -2.1 ± 0.2.

As for CACAAGCAAUAUUACGCGAA, the “self-splicing fitness (ln)” value is -3.43 ± 0.17 (30 °C) and -2.44 ± 0.14 (37 °C).

Turning to UUCGAGCAAUAUUACGUCCG, the “self-splicing fitness (ln)” value reads like this: (30 °C) -3.05 ± 0.24; (37 °C) -1.24 ± 0.28.

With GGUGAGCAAUAUUACGUACC, the “self-splicing fitness (ln)” value is, setting by setting: (30 °C) -3.31 ± 0.44; (37 °C) -1.75 ± 0.37.

With CAUUAGCAAUAUUACGUGCG, the “self-splicing fitness (ln)” value runs as follows: (30 °C) -0.965 ± 0.074; (37 °C) -0.237 ± 0.082.

Consider UACAAGCAAUAUUACGGAAU, for which the “self-splicing fitness (ln)” value by setting is: (30 °C) -3.62 ± 0.24; (37 °C) -2.44 ± 0.25.

Consider CUCCAGCAAUAUUACGCUUA, for which the “self-splicing fitness (ln)” value was -4.14 ± 0.34 (30 °C) and -2.49 ± 0.24 (37 °C).

With UUGUAGCAAUAUUACGAUCU, the “self-splicing fitness (ln)” value (37 °C) is -2.38 ± 0.27.

For the sequence GUGCAGCAAUAUUACGGGUG, the “self-splicing fitness (ln)” value (30 °C) is -3.36 ± 0.12 and the “self-splicing fitness (ln)” value (37 °C) is -1.87 ± 0.12.

On to AGAAAGCAAUAUUACGUGUC, for which the “self-splicing fitness (ln)” value reads like this: (30 °C) -4.33 ± 0.31; (37 °C) -1.67 ± 0.18.

Regarding CUCCAGCAAUAUUACGUCCA, the “self-splicing fitness (ln)” value reads like this: (30 °C) -3.35 ± 0.39; (37 °C) -3.24 ± 0.33.

For GGUUAGCAAUAUUACGCGUC, the “self-splicing fitness (ln)” value was -1.53 ± 0.2 (30 °C) and -1.04 ± 0.18 (37 °C).

On to UUUAAGCAAUAUUACGCUUU, for which the “self-splicing fitness (ln)” value is -3.6 ± 0.35 (30 °C) and -2.95 ± 0.23 (37 °C).

As for ACCUAGCAAUAUUACGCGAA, the “self-splicing fitness (ln)” value is, setting by setting: (30 °C) -3.01 ± 0.19; (37 °C) -1.99 ± 0.12.

For the sequence UAGCAGCAAUAUUACGUCAA, the “self-splicing fitness (ln)” value is -1.79 ± 0.12 (30 °C) and -1.21 ± 0.11 (37 °C).

For the sequence GCUUAGCAAUAUUACGACUC, the “self-splicing fitness (ln)” value runs as follows: (30 °C) -0.244 ± 0.15; (37 °C) 0.619 ± 0.18.

In the case of AUGAAGCAAUAUUACGUCAU, the “self-splicing fitness (ln)” value is, setting by setting: (30 °C) -2.43 ± 0.093; (37 °C) -1.19 ± 0.083.

AUAGAGCAAUAUUACGUGAU: the “self-splicing fitness (ln)” value is -2.02 ± 0.12 (30 °C) and -0.825 ± 0.17 (37 °C).

With GUAGAGCAAUAUUACGGCGC, the “self-splicing fitness (ln)” value is, setting by setting: (30 °C) -0.386 ± 0.18; (37 °C) -0.378 ± 0.22.

For GCGUAGCAAUAUUACGAACU, the “self-splicing fitness (ln)” value is, setting by setting: (30 °C) -0.546 ± 0.13; (37 °C) -0.322 ± 0.11.

CAGCAGCAAUAUUACGGCGC: the “self-splicing fitness (ln)” value by setting is: (30 °C) -2.93 ± 0.35; (37 °C) -1.51 ± 0.2.

Consider CAGCAGCAAUAUUACGUUGU, for which the “self-splicing fitness (ln)” value is -2.88 ± 0.1 (30 °C) and -1.52 ± 0.13 (37 °C).

For the sequence UAUGAGCAAUAUUACGUAUU, for the setting “37 °C”, the “self-splicing fitness (ln)” value is -3.61 ± 0.35.

Regarding CGACAGCAAUAUUACGCACU, the “self-splicing fitness (ln)” value is -1.22 ± 0.09 (30 °C) and 0.0742 ± 0.12 (37 °C).
